Results on seven molecules are retold here after patent US20050013808A1, “Nitroreductase enzymes” (priority 2001, published 2005).

Residue numbers refer to the chain shown, from its start. Names and notes keep the numbering of the source.

The subject of data set [1] is UT5600 cells (NTR−) lysogens. Description: Replica-plate screening of mutant NTR-expressing lysogens on increasing CB1954 (growth score). The data set is classed as cell-based, E. coli. Also noted: key to Score: 0: Good growth on all concentrations of CB 1954 = vector; Good growth on 100 and 200, faint on 300, ring of growth on 400 μM; Good growth on 100 and 200, ring growth on 300, none or very faint on 400 μM; Good growth on 100, faint to good on 200, none or very faint on 300 and 400 μM; 4: Good growth on 100 μM, none to ring growth on 200 μM = wild type; Good growth on 50 μM, ring on 100 μM, none on 200, 300 or 400 μM; 6: Faint growth on 50 μM, ring on 100 μM; 7: Good growth on 50 μM, none on 100 μM; 8: Ring growth on 50 μM, none on 100 μM; 9: None or very faint growth on 50 μM, none on 100 μM; 10: None or ring growth on 35 μM. The settings on record: for Score: growth of lysogens on agar with kanamycin, IPTG and 0-400 μM CB1954, wild type = 4, higher = more sensitive. As to the method:
The ligation mix was packaged (Stratagene) into lambda bacteriophage particles that were used to infect UT5600 cells (NTR ^−). As a control wild type NTR was also cloned into this vector (JG16C2). Kanamycin resistant lysogens were selected on agar plates ([…] kanamycin) then individually grown overnight in a well of a 96-well plate in LB+Kanamycin. The clones were replica plated on to a series of plates containing Tris-buffered (50 mM, pH 7.5) LB agar with kanamycin, IPTG (0.1 mM) and CB1954 at a concentration of 0, 25, 35, 50, 100, 200, 300 or 400 μM (see FIG. 3). […]

The subject of a further data set is HeLa cells. Description: CB1954 sensitisation of HeLa cells after adenoviral NTR expression (MTS viability). In kind it is cell-based, human. The settings on record: range of MOIs, 0-50 μM CB1954, 5 hour exposure, MTS assay. As to the method:
Sensitisation of HeLa cells to CB1954 was assayed using the following protocol. Cells were infected with NTR-expressing viruses in suspension (2 hours) at a range of MOIs prior to plating into microtitre plates (10^4 cells/well). After a 24 hour expression period, CB1954 was applied at a range of concentrations (0-50 μM) and after a 5 hour exposure to the prodrug, cell viability was assessed using the Promega MTS cell substrate killing assay (2-3 hour incubation before plate reading at OD450 nm). […] Adenovirus titreing by plaque formation on helper cells is however an error-prone process. To correct for this, experiments were performed with multiple independent titred preparations of each virus.
The titres of these mixes were assumed to be the means of the respective experimentally determined titres. For western blot analysis of NTR expression for normalisation purposes, whole cell extracts were resolved by SDS-PAGE on an 11% separation gel and blotted onto a nitrocellulose membrane. NTR was detected using a sheep anti-NTR serum (1:1000 diluted), donkey anti-sheep IgG labelled with HRP (horseradish peroxidase) and SuperSignal West Pico Chemiluminescence substrate (Pierce), analysed with an Alpha Innotech Imager Model #2.3.1. The relative loading of each well was determined by Coomassie blue staining of the gel post transfer.

The test system of data set [2] is UT5600 cells (NTR−) lysogens. Description: Survival curve (colony count) IC50 of CB1954 in NTR-expressing lysogens. In kind it is cell-based, E. coli. The settings on record: concentration of CB1954 giving 50% reduction in colony number after 36h growth; lysogen expressing the named NTR. As to the method: To quantify the improvement in NTR activity in the clones in a less subjective way, a few clones were selected for further study by determining their survival curves. The lysogens were grown overnight in LB +kanamycin and diluted to approximately 1 cell per μl based on the OD. In duplicate, 100 μl diluted cells were plated into Tris-buffered LB plates containing kanamycin, IPTG and 0-400 μM CB1954. After 36h growth the number of colonies on each plate were counted and expressed as a percentage of the number present on the plates with no CB1954. Survival curves showing % survival versus concentration of CB 1954 were plotted (see examples in FIG. 7) and the IC50 determined as the concentration of CB 1954 which kills gives a 50% reduction in colony number (Table 3 and FIG. 8). A few clones containing mutations resulting in an enhanced sensitivity to CB 1954 were selected for further study.

Data set [3] can be described thus: Steady state kinetics of purified NTR, variable substrate NADH. The data set is classed as biochemical. Conditions: fixed substrate nitrofurazone; for Km: 10 mM Tris HCl pH 7.0, 25° C., 4% DMSO. As to the method:
(§1) Wild type NTR and selected mutants were purified as described by Lovering et al., 2001. Steady state kinetic studies were carried out by monitoring the disappearance of nitrofurazone ( ? =12,960, Zenno, et al., 1994) and nitrofurantoin ( ? =12,020, McOsker, et al., 1992) at 420 nm or the disappearance of reduced benzoquinone ( ? =18,5000), 2-nitrofuran ( ? =10,250, McOsker, et al., 1992), 2-nitrobenzamide ( ? =9,750, McOsker, et al., 1992) and 4 nitrobenzamide ( ? =9,720, McOsker, et al., 1992) at 300 nm. The formation of the 4 hydroxylamine product of CB1954 reduction was monitored at 420 nm ( ? =7900, Richard Knox, personal communication).
(§2) All reactions were performed in quartz cuvettes with either a 0.1-, 0.5-, or 1-cm pathlength. In all cases the reaction was initiated by the addition of a small amount of cold enzyme solution to the reaction mix. Assays were performed in 10 mM Tris HCL pH 7.0. The temperature of each reaction was maintained at 25° C. by means of a circulating water bath. All substrates examined were dissolved in DMSO, with the final concentration of organic solvent not exceeding 4% (v/v), concentrations>5% (v/v) give definable enzyme inhibition. In all assay the final DMSO concentration was at 4%. All steady state data were collected in an aerobic environment. Kinetic data were collected at concentration ranges extending from 0.1 of Km to the maximum possible concentration permitted by substrate solubility or optical absorbance. In all cases maximum substrate concentrations exceeded 5×Km. All data was analysed using the commercial package Sigma Plot™ and fit with non-linear regression to a rectangular hyperbola of the form: y=ax/b+x

Data set [4] in a line: Steady state kinetics of purified NTR, variable substrate CB1954. In kind it is biochemical. The settings on record: for kinetic parameters compared with wild type: second substrate CB1954, nucleotide NADH; for Km / kcat: variable substrate CB1954, fixed substrate NADH. As to the method: as §1, §2
Data set [5] can be described thus: Steady state kinetics of purified NTR, variable substrate nitrofurazone. The data set is classed as biochemical. Conditions: fixed substrate NADH. As to the method:
as §1, §2

The conditions of data set [6]: nitrofurazone and nitrofurantoin as substrates; cited from earlier work.

B1: F124N (protein)
chain: MDIISVALKRHSTKAFDASKKLTPEQAEQIKTLLQYSPSSTNSQPWHFIVASTEEGKARVAKSAAGNYVFNERKMLDASHVVVFCAKTAMDDVWLKLVVDQEDADGRFATPEAKAANDKGRKFNADMHRKDLHDDAEWMAKQVYLNVGNFLLGVAALGLDAVPIEGFDAAILDAEFGLKEKGYTSLVVVPVGHHSVEDFNATLPKSRLPQNITLTEV
As for B1, in data set [1], the “nitroreductase activity with CB1954 compared with wild-type” value (shortened to “nitroreductase activity with CB1954”) was “substantially greater activity with CB 1954 than the wild-type” and the Score is 8-10. In addition, in the data set with HeLa cells, the “sensitisation of HeLa cells to CB1954 killing compared with WT NTR” value is “more extensive cell killing than that caused by expression of the WT enzyme”. Besides, the IC50 (in general, the concentration that inhibits the measured activity by half) in data set [2] was found to be 21 µM.

B2: T41L: NTR mutant, threonine 41 to leucine (protein)
chain: B1 chain with T41L, N124F
As to B2, in data set [3], the kcat (in general, the number of substrate molecules converted per active site and unit of time at saturation) turned out to be 2111 ± 35 min⁻¹; the Km – broadly, the substrate concentration at which the rate is half of its maximum – was 5 ± 2 µM. The Score in data set [1] was 5-7. For the same molecule, in data set [4], the “kinetic parameters compared with wild type” value is given as “best bimolecular rate constant vs. the second substrate”, the Km is 871 ± 77 µM and the kcat turned out to be 972 ± 82 min⁻¹. For the same molecule, the IC50 in data set [2] is 38 µM. Also, in data set [5], the Km amounted to 79 ± 11 µM and the kcat was 2108.4 ± 36.7 min⁻¹.

B3: N71S F124K: NTR double mutant, asparagine 71 to serine combined with phenylalanine 124 to lysine (protein)
chain: B1 chain with N71S, N124K
For B3, the Score in data set [1] stood at 9. Moreover, in the data set with HeLa cells, the “sensitisation of HeLa cells to CB1954 killing compared with WT NTR” value was “more extensive cell killing than that caused by expression of the WT enzyme”. The same molecule had an IC50 in data set [2] of 16 µM.

B4: F124H: NTR mutant, phenylalanine 124 to histidine (protein)
chain: B1 chain with N124H
On to B4, for which, in data set [3], the kcat worked out at 619 ± 13 min⁻¹ and the Km is 3 ± 0.4 µM. Also, in data set [1], the “nitroreductase activity with CB1954” value is on record as “substantially greater activity with CB 1954 than the wild-type” and the Score is listed as 7-9. Moreover, in data set [4], the “kinetic parameters compared with wild type” value is “significant improvement in kcat/Km for both nucleotide and second substrate”; the Km was found to be 526 ± 10 µM; the turnover number (kcat) stood at 356 ± 35 min⁻¹. This molecule also came in with an IC50 in data set [2] of 41 µM. Besides, the “nitroreductase activity compared with wild-type” value in data set [6] is “approximately double the wild-type activity”. Also, in data set [5], the Km stood at 104 ± 10 µM and the kcat amounted to 643 ± 16 min⁻¹.

B5: F124K: NTR mutant, phenylalanine 124 to lysine (protein)
chain: B1 chain with N124K
Consider B5, for which, in data set [3], the kcat came out at 723 ± 9 min⁻¹ and the Km came out at 1 ± 0.2 µM. In data set [1], the “nitroreductase activity with CB1954” value is “substantially greater activity with CB 1954 than the wild-type” and the Score was 8-10. In addition, in data set [4], the “kinetic parameters compared with wild type” value is “significant improvement in kcat/Km for both nucleotide and second substrate”; the Km amounted to 371 ± 12 µM; the kcat was 343 ± 43 min⁻¹. In addition, the IC50 in data set [2] came out at 23 µM. For the same molecule, in data set [5], the Km was 53 ± 5 µM and the kcat worked out at 758 ± 15 min⁻¹.

B6: Wild type: wild-type E. coli nitroreductase (NTR) encoded by the NfsB gene, SEQ ID NO:1 (protein, listed as Escherichia coli)
chain: B1 chain with N124F
On to B6, for which the kcat was determined as 657 ± 23 min⁻¹ in data set [3], 342 ± 25 min⁻¹ in data set [4] and 683 ± 3 min⁻¹ in data set [5]. For the same molecule, the values for the Km in data set [3], in data set [4] and in data set [5] were 7 ± 1 µM, 852 ± 8 µM and 157 ± 4 µM, respectively. Further, in data set [1], the Score is recorded as 4. For the same molecule, the IC50 in data set [2] stood at 118 µM.

B7: Y68G: NTR mutant, tyrosine 68 to glycine (protein)
chain: B1 chain with Y68G, N124F
Regarding B7, in data set [3], the kcat is 3286 ± 33 min⁻¹ and the Km came out at 22 ± 1 µM. The Score in data set [1] is reported as 7. For the same molecule, in data set [4], the “kinetic parameters compared with wild type” value is on record as “large improvement in catalytic activity vs. second substrate but not in kcat/Km”, the Km was 1840 ± 44 µM and the kcat stood at 690 ± 54 min⁻¹. In addition, 43 µM corresponded to half-maximal inhibition in data set [2] (IC50). In data set [5], the Km turned out to be 699 ± 24 µM and the kcat worked out at 3541 ± 24 min⁻¹.
